The text below walks through data of article PMC7949122 (The Journal of Biological Chemistry, 2021).

For test [1], the system named is endogenous B1R in HeLa cells (ERK1/2 phosphorylation). As to the kind of experiment: ERK1/2 phosphorylation (western blot) after B1R stimulation, AltB2RFlag versus Mock stable HeLa cells. The test is classed as cell-based, human. Particulars: 1 μM NG29, n = 3.
Another test deals with B1R. Details: method as in PMID 15734727. Particulars: cited from earlier work.
For test [2], the target named is T1, human B2R on transfected HEK293A cells (human, UniProt P30411 1-391).
T1 chain: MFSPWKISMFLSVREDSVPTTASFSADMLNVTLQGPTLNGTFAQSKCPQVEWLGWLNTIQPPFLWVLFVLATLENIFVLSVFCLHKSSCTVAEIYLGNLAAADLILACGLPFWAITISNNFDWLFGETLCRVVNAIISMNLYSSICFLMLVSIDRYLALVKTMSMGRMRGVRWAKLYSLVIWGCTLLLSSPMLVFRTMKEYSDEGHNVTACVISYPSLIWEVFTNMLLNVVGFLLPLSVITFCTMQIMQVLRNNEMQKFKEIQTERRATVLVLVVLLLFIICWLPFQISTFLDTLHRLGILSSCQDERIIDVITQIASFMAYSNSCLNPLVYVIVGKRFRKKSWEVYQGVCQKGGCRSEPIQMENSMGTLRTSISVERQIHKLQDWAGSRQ
The test can be described thus: B2R(Ø); displacement of [3H]-BK. For orientation: In a radioligand displacement assay an active substance lowers the binding of a labelled ligand.

The target in test [3] is T1, human B2R on transfected HEK293A cells. The test can be described thus: B2R; displacement of [3H]-BK.

“Also recorded” adds a separate entry of the source. Non-standard residues stand in square brackets, D forms with d. No end group written: not given here. Hyp = O=C(O)[C@@H]1C[C@@H](O)CN1; 2Thi = N[C@@H](Cc1cccs1)C(=O)O; NChg = not defined here

As to SarLys[Dphe^8]desArg^9-BK [NG29], the “phosphorylated ERK1/2 after B1R stimulation, AltB2RFlag versus mock HeLa cells” value in test [1] was “not significant; also recorded: did not observe any difference in the increased levels of phosphorylated ERK1/2 between mock and AltB2R^Flag cells”.
Consider “desArg^9-BK: carboxy-terminally truncated peptide metabolite (RPPGFSPF; Bradykinin; UniProt P01042 381-388, looked up, fragment)”, for which the kinin receptor selectivity entry in the test on B1R is given as “selectively bind to the other type of kinin receptor, the inducible B1R”.
Regarding “desArg^10-KD: carboxy-terminally truncated peptide metabolite (KRPPGFSPF; Lysyl-bradykinin; UniProt P01042 380-388, looked up, fragment)”, the kinin receptor selectivity entry with B1R was “selectively bind to the other type of kinin receptor, the inducible B1R”.
By IC50 is commonly meant the midpoint of a concentration-inhibition curve. A higher IC50 goes with lower potency. As to RP[Hyp]G[2Thi]SP[Tyr(4-Me)]R (also: ΨCH2NH reduced bond between residues 8 and 9) [RMP-7 ([Hyp^3,Thi^5,(4-Me)Tyr^8(ΨCH2NH)Arg^9]-BK)], the IC50 in test [2] is 18 nM; in test [3], 17.7 nM.
The like results for RP[Hyp]G[2Thi]S[NChg][2Thi]R (reading uncertain; also: printed as [Hyp^3,Thi^5,^NChg^7,Thi^8]-BK) [NG291 ([Hyp^3,Thi^5,^NChg^7,Thi^8]-BK)] were, in that order, 4.38 nM and 6.21 nM.
